Assay results taken from the supplement of paper PMC9170038.

Test system: K4 kissing-loop RNA reporter
Experiment: apparent KD of K4 kissing-loop reporter; higher = weaker reporter binding
Conditions: Eterna round: R107
Procedure: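 RNA-MaP round R107: designed RNA switches with theophylline, tryptophan, arginine or FMN aptamers are transcribed on-chip within common flanks. They are titrated with a labelled K4 kissing-loop RNA reporter in RNA-MaP buffer (100 mM Tris pH 7.5, 80 mM KCl, 4 mM MgCl2), without ligand or with the indicated ligand. Median apparent KD per design.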

[1] = input ligand: theophylline 20 uM
[2] = input ligand: tryptophan 2.4 mM
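Further: bound reporter read as fluorescence of individual clusters on recovered sequencing chips by microscopy, with normalized cluster intensities fitted with a binding model.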

Sequence | apparent KD of K4 kissing-loop reporter (input ligand: FMN 200 uM) [nM] | apparent KD of K4 kissing-loop reporter (input ligand: arginine 13.2 mM) [nM] | apparent KD of K4 kissing-loop reporter (input ligand: none) [nM] | apparent KD of K4 kissing-loop reporter [1] [nM] | apparent KD of K4 kissing-loop reporter [2] [nM]
CCUAUCUCAUACGAUACCAGUCCGAGUGAUGUUCGAAAAUAAAUAAAUUUGCCAUAUAAUGACCCUUGGCAGCGUAUGGGAUAGG [Ex Theophylline B K4 11] | 354 | 296 | 351 | 400 | 300
GGAUAGGACAGAGGAUAUGGGCUAGGCAAGAAUAACUUGUCUAGCAAAUCCAUGAGGAGUGAUGUUCCAGAAGGUUGUCCUAUCG [FmnBX 1 U75] | 284 | 108 | 92.3 | 120 | 87.8
AAUAACUAGUAUAUUUGUAAUAAAACAGAUACCAGUGAUAAUAAACACCCUUGGCAGCUGAUCGAGUGAUGUUCGUUUAUUUUAA [JR_SSTheophyA_Sub004] | 102 | 96.5 | 124 | 130 | 78.5
AAGCAGUCACUCUAAGCCAUCGAAGAUGGACGAGGACCGGUACGGCCGCCACUCGGAGUGAUGUUCCGAAGACUGCAAAAUAAAA | 379 | 402 | 466 | 396 | 399
GUAGCACUUGGUAGUGAUGUUACCAAGGACAAGGAUAUCAUCUCAAUGAGAAGGUGUCCUUGGUAACAGCUACGGGAAUAUCCCA [Omei KL FMN A Exc D v2] | 275 | 194 | 226 | 242 | 246
UUUGGUUUCUCGGCCGCCACUCGUUGGUUAUGGGCCUCAGGGAUAUAGUGAUGUUAUGUAAAGAAGAGGACCGGGAGAAGGAAGG [ExTryptoB.Do] | 493 | 395 | 225 | 283 | 380
GGUAGCAUGGCGGCCGCCACUUCAAUUGGAGUGAUGUUCCAAGGCAUCGCGAAAGCGAUGCCAGGAAGGACCGGGCCAUGCUACC | 271 | 224 | 306 | 222 | 112
UGUAUGUGAUUUGAUACCAGACCAGGUGGAGGAAUCUGAGUGAUGUUCAGGUAGGUUUGGGUCCCUUGGCAGCAAAUCGCAUACU [KL-SSTheoB18] | 173 | 136 | 149 | 176 | 158
CAAAUAUGCGGUAGGUUCAAGCGCUGGGAAGGAGCGCAGAUGACUGCAGGUAGGUCGCCCAGUGAUGUUGGGCUUUCCACCUAUU [Edbeaan] | 123 | 124 | 132 | 146 | 121
UUAGCCCUAUAGGGCAAGACCUAUACUGAUACCAGAGGGUAUACCCUCCCUUGGCAGCGGAUCGAGUGAUGUUCGUAAGGUCAUU [AK4.4 SS Theophylline A] | 741 | 730 | 844 | 776 | 572
CGCAAGCAGCCAGUGAUGUUGGCUGCCUUGCGAGGACCGGUACGGCCGCCACUCGAAGGCAGCUACUGGUAAACCGUCUAACGGA [Atere] | 117 | 105 | 111 | 90.7 | 250
AAGCAGUCACUCAAAGCCAUCGAAGAUGGACGAGGACCGGUACGGCCGCCACUCGGAGUGAUGUUCCGAAGACUGCAAAAUAAAA | 408 | 295 | 304 | 511 | 230
AGUCCACUCUAAAGAGUGGACCUAAGGGAUACCAGUGAUGUUGGUCACCCUUGGCAGCCCACUGUCAUCGAUAAAGAUGGCAGGA | 128 | 112 | 116 | 119 | 117
UGUCAUUGGUCGGCCGCCACUUCAUAAAGAGUGAUGUUCUUAAAGACGGAUCGAAAGAUCUGUCGAAGGACCGGGACCGAUGACU [FiskerMod 8 - Jieux - Same State - Tryptophan B] | 1330 | 1080 | 1500 | 927 | 196
CUCGUGGGUUUGAGAGGGCUUGUGGGAAGUGAGGAUAUUUAGGGAGAAAGAAGGCACUAUAGAAUAUAGUGAUGUUAUAUAAGGG [SSFMNA.N] | 314 | 95.7 | 200 | 273 | 212
GGUGUUGUUUGUGCCGCCUUCCUCGUUCCUCGAGGACCGGUACGGCCGCCACUCGAGUGAUGUUUGGGUAGCGAUCCCUGUUAGU [Bdazzled - #11 Exc. Tryptophan A] | 764 | 573 | 892 | 638 | 778
GCUAUGGUAGGAAGGAGCGCGGACGAUAUUUAUCGAGUGAUGUUCGAAUAAUUAAAUAAAACGCAGGUAGGUCGCCUACUAUAGC [Arginine B K4 27] | 108 | 113 | 99.9 | 102 | 94
CGUACGGUUUCUUUCUUUCCGUACGAGUGCCGAGGACCGGUACGGCCGCCACUCGCUACAGCCUAGUGAUGUUAGGCAUUUCUUU | 104 | 110 | 105 | 146 | 94.1
GAUGUCUAGAGAUCAUCUAGACACCUAGAUACCAGCAGAUAUAUCUGCCCUUGGCAGCUAGAACCAGUGAUGUUGGUAUAUGCUC [Theo A SS t3] | 259 | 256 | 307 | 360 | 229
GUGCGGCUAGUGAUGUUGGUUGUGUGGGAAGGAGCGCAGAUACAUGCAGGUAGGUCGCCCACACCUCUGAAAGGAGGCUAAUUCA [KL-SSArg-A15] | 418 | 330 | 411 | 325 | 350
AAUACGUUCACGGCCGCCACUGAAUAAUUGGUAAGUAGUGAUGUUACUUUACAUAUCUUAUUUAACAGGACCGGGUGAUCGUUUA [JR_Nu_ExcTryptoB_Sub028] | 130 | 108 | 122 | 105 | 142
AGAGUUUUAUGAGGAUAUGAGAUAGUUAAUGAGUGAGUUAUAGUGUAGUUUGGUUAGUGAUGUUAUUUAGAAGGCGUGAGUGAUG [zzfzmullin] | 205 | 92.9 | 143 | 101 | 108
